We go through four molecules from patent US11981731B2, “Targeting cytotoxic cells with chimeric receptors for adoptive immunotherapy” (Novartis AG, priority 2014, dated 2024).

The subject of data set [1] is K562 cells engineered to express mesothelin. Nature of the data set: Antigen-triggered cytokine secretion. Type of data set: cell-based, human. Particulars: Example 14, T cells:targets 2:1, 24 hours, ELISA. As for the experimental part: Cytokine production of the huMeso-KIRS2-expressing CAR cells was also assessed. Primary human T cells were simulated, transduced with the huMes-KIRS2 and expanded as previously described. Following expansion, the transduced T cells were mixed with K562 (mesothelin-negative cells, empty bars) or K562 cells engineered to express mesothelin (black bars) at a ratio of 2:1. Cytokine concentrations (IFNγ and IL-2) were determined in supernatants following 24 hours of stimulation by ELISA for the indicated cytokines.

Data set [2] deals with mesothelioma-derived cells expressing mesothelin (EM-meso cells). Put plainly: EM-meso subcutaneous xenograft in NSG mice, tumor volume by caliper. Type of data set: in vivo, mouse. Particulars: 4 million T cells i.v. day 20. As for the experimental part: 20 days following tumor implantation, each animal was injected intravenously with 5×10^6 T cells that were stimulated with anti-CD3/anti-CD28 stimulator beads followed lentiviral transduction with a series of CD3ζ-based CAR with or without a costimulatory domain (SS1-ζ, SS1-BBζ and SS1-28ζ) or the mesothelin-specific KIR-based CARs, SS1-KIRS2 with DAP12. Mock transduced T cells (NTD) were used as a control. Tumor volume was measured by caliper at the indicated times (n=7 mice per group). […] The frequency of human CD45+ T cells was assessed at the end of the experiment by flow cytometry, and data are expressed as a percentage of total viable cells in the blood, spleen and tumor digest. […] The frequency of CD3+ human lymphocytes in tumors at day 30 (10 days following CAR T infusion) was assessed by flow cytometry. […] 4 million T cells expressing DAP12 and dsRed (DAP12), SS1-28z or SS1-KIRS2 and DAP12 (SS1-KIRS2) were injected intravenously on day 20, and tumor volume was assessed over time via caliper measurement. […] Antigen-specific cytotoxicity was assessed by coculturing with firefly luciferase expressing EM-meso cells or EMp cells (parental EM cells lacking mesothelin expression) at indicated E:T ratios for 18 hours. […]
Animal models can also be used to measure activity of a CAR-expressing cell. […] Animals are assessed for tumor progression at weekly intervals. […]

The test system of a further data set is K562-meso-HLACw. Put plainly: KIR2DL3 suppression of KIR-CAR cytotoxicity, 51Cr release against K562-meso-HLACw. Type of data set: cell-based, human. Particulars: coexpressed with SS1-KIRS2/DAP12, HLA-Cw on the target cells. As for the experimental part:
K562 cells (K562) or K562 cells expressing mesothelin (K562-meso) were transduced with the HLA-Cw3 allele followed by fluorescence activated cell sorting to obtain K562 cells expressing HLA-Cw with (K562-meso-HLACw) or without (K562-HLACw) expression of mesothelin. HLA-Cw3 expression was assessed by flow cytometry using an APC-conjugated monoclonal antibody that recognizes HLA-A, B and C alleles (clone W6/32).
Primary human T cells were stimulated with CD3/28 microbeads followed by lentiviral transduction with SS1-KIRS2 and DAP12 (SS1-KIRS2) or mock transduced (NTD) in combination with wild-type KIR2DL3. The T cells were expanded until the end of log-phase growth. The surface expression of the mesothelin-specific CAR and KIR2DL3 was determined by staining with mesothelin-Fc followed by PE-conjugated goat-anti-human Fc and a monoclonal antibody to the KIR2DL3 ectodomain.
T cell that were generated and characterized as described in FIG. 21 were mixed with 51-Cr labeled target K562 cells that were generated and characterized as described in FIG. 22. Cytotoxicity was determined by measuring the fraction of ^51Cr released into the supernatant at 4 hours compared target cells without effector cells.

B1: M16: human anti-mesothelin scFv, SEQ ID NO: 245 (protein)
scFv: EVQLVESGGGLVQPGRSLRLSCAASGFTFDDYAMHWVRQAPGKGLEWVSGISWNSGSTGYADSVKGRFTISRDNAKNSLYLQMNSLRAEDTALYYCAKDSSSWYGGGSAFDIWGQGTMVTVSSGGGGSGGGGSGGGGSSSELTQEPAVSVALGQTVRITCQGDSLRSYYASWYQQKPGQAPVLVIFGRSRRPSGIPDRFSGSSSGNTASLIITGAQAEDEADYYCNSRDNTANHYVFGTGTKLTVL
As to B1, the IL-2 production result in data set [1] was “produced IL-2”.

B2: M17: human anti-mesothelin scFv, SEQ ID NO: 246 (protein)
scFv: EVQLVESGGGLVQPGRSLRLSCAASGFTFDDYAMHWVRQAPGKGLEWVSGISWNSGSTGYADSVKGRFTISRDNAKNSLYLQMNSLRAEDTALYYCAKDSSSWYGGGSAFDIWGQGTMVTVSSGGGGSGGGGSGGGGSSSELTQDPAVSVALGQTVRITCQGDSLRSYYASWYQQKPGQAPVLVIYGKNNRPSGIPDRFSGSSSGNTASLTITGAQAEDEADYYCNSRGSSGNHYVFGTGTKVTVL
For the molecule B2, in data set [1], the IL-2 production result is recorded as “produced IL-2”.

B3: DAP12: T cells expressing DAP12 and dsRed; DAP12 adaptor molecule, SEQ ID NO: 368 (protein)
chain: MGGLEPCSRFLLLPLLLAVSGLRPVQVQAQSDCSCSTVSPGVLAGIVMGDLVLTVLIALAVYFLGRLVPRGRGAAEAATRKQRITETESPYQELQGQRSDVYSDLNTQRPYYK
Take B3: the “tumor eradication by DAP12-modified T cells” value in data set [2] is reported as “require the mesothelin-specific KIR-based CAR for tumor eradication”.

B4: KIR2DL3: wild-type KIR2DL3 inhibitory receptor co-expressed in T cells (SEQ ID NO: 345) (protein)
chain: MSLMVVSMVCVGFFLLQGAWPHEGVHRKPSLLAHPGPLVKSEETVILQCWSDVRFQHFLLHREGKFKDTLHLIGEHHDGVSKANFSIGPMMQDLAGTYRCYGSVTHSPYQLSAPSDPLDIVITGLYEKPSLSAQPGPTVLAGESVTLSCSSRSSYDMYHLSREGEAHERRFSAGPKVNGTFQADFPLGPATHGGTYRCFGSFRDSPYEWSNSSDPLLVSVTGNPSNSWPSPTEPSSETGNPRHLHVLIGTSVVIILFILLLFFLLHRWCCNKKNAVVMDQEPAGNRTVNREDSDEQDPQEVTYAQLNHCVFTQRKITRPSQRPKTPPTDIIVYTELPNAEP
In the case of B4, the “effect on antigen specific cytotoxicity of co-expressed KIR CAR” value with K562-meso-HLACw is “can suppress antigen specific cytotoxicity”.
